The Kd is the free concentration of one partner at which half of the binding sites on the other are occupied at equilibrium, for simple one-to-one binding. Lower therefore signals higher affinity. Broadly, the koff is the rate constant with which the complex falls apart. Low values mean slow dissociation, high ones fast dissociation. In general, kon refers to the rate constant with which the complex forms. A lower kon goes with slower complex formation. One may read the stoichiometry N as a count of units in the complex or per binding partner.

Data on 4 molecules can be found in PMC7939394, “A highly potent CD73 biparatopic antibody blocks organization of the enzyme active site through dual mechanisms” (The Journal of Biological Chemistry, 2020).

For data set [1], the target named is TB38/AS30. Put plainly: SPR; Biacore T200, 25°C, HBS-EP+ pH 7.4; antibody captured at low density (5-30 RU) on Protein A chips, CD73 at 3, 12 or 32 nM in the flow (5 min association, 30 min dissociation); 1:1 Langmuir binding model.
The target of data set [2] is TB19/AS30. Described as above.
Data set [3] deals with TB19/TB38. Described as above.
Data set [4] concerns the molecule itself. Briefly: crystal structure; TB19 Fab::CD73 complex; crystals in 0.1 M sodium potassium phosphate pH 6.2, 35% 5-methyl-2,4-pentanediol, 2.5% pentaerythritol ethoxylate, 4°C.
Data set [5] concerns the target T1, extracellular domain of human CD73 (residues 27-549) deglycosylated with PNGase F (human, UniProt P21589, deglycosylated with PNGase F; a glycan left at Asn-311).
T1 construct: CD73 (ecto-5'-nucleotidase, NT5E), human, extracellular domain, residues 27-549; Construct used for SEC-MALS and for the two crystal structures; also called ecto-5'-nucleotidase; NT5E; source: ExpiHEK293, purified (nickel column, PNGase F, size-exclusion chromatography)
Briefly: crystal structure; TB38 Fab::CD73 complex; crystals in 1.6 M sodium phosphate monobasic, 0.4 M potassium phosphate dibasic, 0.1 M sodium phosphate citrate pH 5.3, 4°C. The note with it: both partners purified.

Data set [6] deals with T1, extracellular domain of human CD73 …. Put plainly: crystal structure; TB19 Fab::CD73 complex; crystals in 0.1 M sodium potassium phosphate pH 6.2, 35% 5-methyl-2,4-pentanediol, 2.5% pentaerythritol ethoxylate, 4°C. The note with it: both partners purified.
Data set [7] concerns the target T2, soluble CD73 dimer (human, UniProt P21589).
T2 construct: CD73 (ecto-5'-nucleotidase, NT5E), human, soluble form; Also used here as the target of the functional rows, where CD73 stood whole on COR-L23 cells; also called soluble human CD73
Put plainly: BLI; pre-mix epitope binning: monovalent antibodies on protein A biosensors, 100 nM CD73 alone or with a 4-fold molar excess of Fab; PBS pH 7.4, 0.1% BSA, 0.01% Tween 20, 30°C. The settings on record: both partners purified. A general note: Biolayer interferometry detects binding as a change in optical thickness at a sensor tip.

B1: soluble CD73 dimer (enzyme)
chain: WELTILHTNDVHSRLEQTSEDSSKCVNASRCMGGVARLFTKVQQIRRAEPNVLLLDAGDQYQGTIWFTVYKGAEVAHFMNALRYDAMALGNHEFDNGVEGLIEPLLKEAKFPILSANIKAKGPLASQISGLYLPYKVLPVGDEVVGIVGYTSKETPFLSNPGTNLVFEDEITALQPEVDKLKTLNVNKIIALGHSGFEMDKLIAQKVRGVDVVVGGHSNTFLYTGNPPSKEVPAGKYPFIVTSDDGRKVPVVQAYAFGKYLGYLKIEFDERGNVISSHGNPILLNSSIPEDPSIKADINKWRIKLDNYSTQELGKTIVYLDGSSQSCRFRECNMGNLICDAMINNNLRHTDEMFWNHVSMCILNGGGIRSPIDERNNGTITWENLAAVLPFGGTFDLVQLKGSTLKKAFEHSVHRYGQSTGEFLQVGGIHVVYDLSRKPGDRVVKLDVLCTKCRVPSYDPLKMDEVYKVILPNFLANGGDGFQMIKDELLRHDSGDQDINVVSTYISKMKVIYPAVEGRIKFS
In data set [1], B1 displayed a Kd of 814 pM, a koff of 0.000187 s⁻¹ and a kon of 237000 M⁻¹ s⁻¹. In data set [2], this molecule came in with a Kd of 4180 pM, a koff of 0.00069 s⁻¹ and a kon of 165000 M⁻¹ s⁻¹. In data set [3], the Kd is 555 pM, the koff came to 0.000102 s⁻¹ and the kon is 184000 M⁻¹ s⁻¹.

B2: extracellular domain of human CD73 (residues 27-549) deglycosylated with PNGase F (enzyme, UniProt P21589 27-549, looked up)
chain: B1 chain
modifications: deglycosylated with PNGase F; a glycan left at Asn-311
notes: CD73 (ecto-5'-nucleotidase, NT5E), human, extracellular domain, residues 27-549; Construct used for SEC-MALS and for the two crystal structures; also called ecto-5'-nucleotidase; NT5E; source: ExpiHEK293, purified (nickel column, PNGase F, size-exclusion chromatography)
As to B2, the “stoichiometry N” value in data set [4] came to 2.

B3: TB38 Fab (Fab, V domains shown)
VH: QVQLVESGGGVVQPGRSLRLSCAASGFTFSSYGMHWVRQAPGKGLEWVAVFWYDGSNKYYADSVKGRFTISRDNSKNTLYLQMNSLSAEDTAVYYCARAPNWDDAFDIWGQGTMVTVSS
VL: QTVVTQEPSFSVSPGGTVTLTCGLSSGSVSTSYYPNWYQQTPGQAPRTLIYSTNTRSSGVPDRFSGSILGNKAALTITGAQADDESDYYCVLFMGSGIWVFGGGTKLTVL
notes: deposited with the structure TB38::CD73, PDB 6VCA (full Fab built on the open CD73 dimer); also called TB38 Fv
Turning to B3, the binding result in data set [5] is “binds”.

B4: TB19 Fab (Fab, V domains shown)
VH: QEQLQESGPGLVKPSETLSLTCTVSGGSIRNNYYNWIRQPAGKGLEWIGRIYISGTTNSNPSLKSRVTMSIDTSKNQFSLKLSSVTAADTAIYYCAREHYVSGTSLDNWGQGTLVTVSS
VL: EIVMTQSPTTLSLSPGERATLSCRASQSVNTNYFSWYQQKPGLTPRLLIYGTSTRATGIPARFSGSGSGTDFTLTISSLQPEDFGIYYCQQDYNLPYTFGQGTYLEIK
notes: deposited with the structure TB19::CD73, PDB 6VC9 (only the Fv could be built); The methods speak of a 'TB19.3 Fv model' as search model; also called TB19 Fv
With B4, the binding result in data set [6] and in data set [7] was “binds” in each case.
